These results are taken from PMC2779590 (2009).

The assay has as its target α5β1 integrin (Homo sapiens, UniProt P08648). The assay can be described thus: SPR. (In general: In SPR one partner is held on a chip, and binding of the other changes the refractive index at the surface.)

The Kd is the concentration at which binding is half-saturated. Low readings indicate a tighter complex, high ones a looser complex.

α5β1 integrin, sequence (P08648 42-1049, chain 1 of 2): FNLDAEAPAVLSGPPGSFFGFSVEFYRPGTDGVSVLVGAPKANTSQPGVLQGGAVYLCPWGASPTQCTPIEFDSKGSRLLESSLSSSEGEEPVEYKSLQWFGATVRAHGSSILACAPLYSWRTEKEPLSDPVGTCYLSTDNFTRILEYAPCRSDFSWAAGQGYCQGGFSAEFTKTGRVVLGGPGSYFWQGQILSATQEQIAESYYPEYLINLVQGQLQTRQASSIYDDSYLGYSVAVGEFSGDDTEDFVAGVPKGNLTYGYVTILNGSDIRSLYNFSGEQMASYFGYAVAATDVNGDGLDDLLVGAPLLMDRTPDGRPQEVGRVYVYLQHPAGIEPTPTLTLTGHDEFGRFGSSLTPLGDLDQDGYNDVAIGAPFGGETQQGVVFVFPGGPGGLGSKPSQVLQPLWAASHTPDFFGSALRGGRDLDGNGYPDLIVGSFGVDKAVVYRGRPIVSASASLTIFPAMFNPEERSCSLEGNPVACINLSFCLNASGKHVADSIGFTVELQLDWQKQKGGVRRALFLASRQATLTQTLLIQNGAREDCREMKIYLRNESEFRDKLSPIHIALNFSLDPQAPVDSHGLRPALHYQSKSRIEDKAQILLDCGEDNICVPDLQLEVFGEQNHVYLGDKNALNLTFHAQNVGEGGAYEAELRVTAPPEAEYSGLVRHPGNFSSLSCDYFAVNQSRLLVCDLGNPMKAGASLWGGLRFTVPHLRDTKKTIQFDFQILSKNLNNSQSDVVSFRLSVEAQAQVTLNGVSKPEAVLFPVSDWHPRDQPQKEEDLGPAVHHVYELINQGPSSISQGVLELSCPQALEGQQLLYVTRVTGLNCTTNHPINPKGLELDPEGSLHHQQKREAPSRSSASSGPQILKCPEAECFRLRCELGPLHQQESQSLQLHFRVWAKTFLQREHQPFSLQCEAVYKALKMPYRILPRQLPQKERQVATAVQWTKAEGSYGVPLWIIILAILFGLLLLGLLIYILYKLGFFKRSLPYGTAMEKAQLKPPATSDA
α5β1 integrin, sequence (chain, as listed by the source, chain 2 of 2): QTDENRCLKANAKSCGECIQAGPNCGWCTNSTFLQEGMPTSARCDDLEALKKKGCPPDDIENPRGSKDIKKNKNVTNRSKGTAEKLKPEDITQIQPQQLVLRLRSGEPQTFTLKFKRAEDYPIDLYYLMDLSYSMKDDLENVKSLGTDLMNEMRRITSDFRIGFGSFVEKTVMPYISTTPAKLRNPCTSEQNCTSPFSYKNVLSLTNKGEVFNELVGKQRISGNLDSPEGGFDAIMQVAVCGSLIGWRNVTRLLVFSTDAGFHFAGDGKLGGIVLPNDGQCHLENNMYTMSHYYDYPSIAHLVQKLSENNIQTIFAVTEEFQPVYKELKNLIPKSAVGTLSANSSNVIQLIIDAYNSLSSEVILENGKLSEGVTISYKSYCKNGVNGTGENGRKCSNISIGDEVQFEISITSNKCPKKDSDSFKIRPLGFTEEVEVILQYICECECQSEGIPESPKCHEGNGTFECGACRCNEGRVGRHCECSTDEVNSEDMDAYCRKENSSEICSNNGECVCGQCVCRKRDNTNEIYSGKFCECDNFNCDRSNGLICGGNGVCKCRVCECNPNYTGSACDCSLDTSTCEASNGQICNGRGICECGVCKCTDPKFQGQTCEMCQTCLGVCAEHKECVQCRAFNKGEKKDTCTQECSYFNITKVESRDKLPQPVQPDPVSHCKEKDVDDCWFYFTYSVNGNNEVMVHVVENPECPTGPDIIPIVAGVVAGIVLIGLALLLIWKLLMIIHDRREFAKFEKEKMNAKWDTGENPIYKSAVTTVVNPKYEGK

B1: CagA (protein)
chain: MTNETIDQTRTPDQTQSQTAFDPQQFINNLQVAFIKVDNVVASFDPDQKPIVDKNDRDNRQAFDGISQLREEYSNKAIKNPTKKNQYFSDFIDKSNDLINKDNLIDVESSTKSFQKFGDQRYQIFTSWVSHQKDPSKINTRSIRNFMENIIQPPIPDDKEKAEFLKSAKQSFAGIIIGNQIRTDQKFMGVFDESLKERQEAEKNGGPTGGDWLDIFLSFIFNKKQSSDVKEAINQEPVPHVQPDIATTTTDIQGLPPEARDLLDERGNFSKFTLGDMEMLDVEGVADIDPNYKFNQLLIHNNALSSVLMGSHNGIEPEKVSLLYAGNGGFGDKHDWNATVGYKDQQGNNVATLINVHMKNGSGLVIAGGEKGINNPSFYLYKEDQLTGSQRALSQEEIRNKVDFMEFLAQNNTKLDNLSEKEKEKFQNEIEDFQKDSKAYLDALGNDRIAFVSKKDTKHSALITEFNNGDLSYTLKDYGKKADKALDREKNVTLQGSLKHDGVMFVDYSNFKYTNASKNPNKGVGATNGVSHLEAGFNKVAVFNLPDLNNLAITSFVRRNLENKLTAKGLSLQEANKLIKDFLSSNKELAGKALNFNKAVAEAKSTGNYDEVKKAQKDLEKSLRKREHLEKEVEKKLESKSGNKNKMEAKAQANSQKDEIFALINKEANRDARAIAYTQNLKGIKRELSDKLEKISKDLKDFSKSFDEFKNGKNKDFSKAEETLKALKGSVKDLGINPEWISKVENLNAALNEFKNGKNKDFSKVTQAKSDLENSVKDVIINQKVTDKVDNLNQAVSVAKAMGDFSRVEQVLADLKNFSKEQLAQQAQKNEDFNTGKNSELYQSVKNSVNKTLVGNGLSGIEATALAKNFSDIKKELNEKFKNFNNNNNGLKNSTEPIYAKVNKKKTGQVASPEEPIYTQVAKKVNAKIDRLNQIASGLGGVGQAAGFPLKRHDKVDDLSKVGLSASPEPIYATIDDLGGPFPLKRHDKVDDLSKVGRSRNQELAQKIDNLNQAVSEAKAGFFGNLEQTIDKLKDSTKKNVMNLYVESAKKVPASLSAKLDNYAINSHTRINSNIQNGAINEKATGMLTQKNPEWLKLVNDKIVAHNVGSVSLSEYDKIGFNQKNMKDYSDSFKFSTKLNNAVKDIKSGFTHFLANAFSTGYYCLARENAEHGIKNVNTKGGFQKS
B1: binding was characterised by a dissociation constant (Kd) of 150 pM.
